B1: p67^phox(1–212) [not stated] / Nox2 peptide 24 (357–371), dithiol form [modified: biotin on the N-terminus; C-terminal amide; cysteines 369 and 371 in the dithiol form; biotin on the N-terminus; C-terminal … (parent)
chain 1: MSLVEAISLWNEGVLAADKKDWKGALDAFSAVQDPHSRICFNIGCMYTILKNMTEAEKAFTRSINRDKHLAVAYFQRGMLYYQTEKYDLAIKDLKEALIQLRGNQLIDYKILGLQFKLFACEVLYNIAFMYAKKEEWKKAEEQLALATSMKSEPRHSKIDKAMECVWKQKLYEPVVIPVGKLFRPNERQVAQLAKKDYLGKATVVASVVDQD
chain 2: SGSGIVGDWTEGLFNACGC

Variants of: B1
Experiment: peptide-protein binding assay (surface-attached biotinylated peptide, protein in solution, kinetic TMB oxidation read-out)
Conditions: with Nox2 peptide 24 (357–371), 10 min kinetic experiment, read off a plot

Variant	response (Absorbance (650 nm) x 1000/min)
chain 1 C40S C45S C121S C165S	10

Source: paper PMC4316792, “The dehydrogenase region of the NADPH oxidase component Nox2 acts as a protein disulfide isomerase (PDI) resembling PDIA3 with a role in the binding of the activator protein p67^phox” (Frontiers in Chemistry, 2015)
